{"source": "paper PMC2915670", "key": {"[1]": {"biological_target": "FMDV 2C(61–318) (foot-and-mouth disease virus, type [change])"}, "FMDV 2C(34-318)": {"biological_target": "FMDV 2C(34-318) (Foot-and-mouth disease virus type O1K, UniProt P03305 1141-1425)", "sequence (P03305 1141-1425)": "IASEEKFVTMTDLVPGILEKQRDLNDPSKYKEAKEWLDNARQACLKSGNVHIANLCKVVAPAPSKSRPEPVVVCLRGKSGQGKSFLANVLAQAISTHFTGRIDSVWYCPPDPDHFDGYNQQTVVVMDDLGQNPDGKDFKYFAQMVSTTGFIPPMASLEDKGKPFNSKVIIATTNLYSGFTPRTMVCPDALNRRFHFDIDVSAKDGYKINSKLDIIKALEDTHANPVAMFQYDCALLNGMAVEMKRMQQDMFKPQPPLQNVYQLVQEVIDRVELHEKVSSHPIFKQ", "assay": "EMSA"}}, "data": [{"molecule": "FMDV 2C(61–318) (domain or fragment)", "values": [{"measurement": "ATPase activity (pmol Pi/pmol protein/min)", "setting": "[1]", "result": 0.46}]}, {"molecule": "CGCGAAUAAUUU (ssRNA)", "note": "[12-base ssRNA]", "values": [{"measurement": "binding result", "setting": "FMDV 2C(34-318)", "result": "binds"}]}, {"molecule": "AAUUCUAAGGGCCAGCGAGA (ssRNA)", "note": "[20-base ssRNA]", "values": [{"measurement": "Kd", "setting": "FMDV 2C(34-318)", "result": "~5", "unit": "µM"}]}]}
